Kd and stoichiometry N data for 3 molecules are collected here from PMC3282106.

Among the targets are T-Mod(Dss1A) (UniProt P31948); T-Mod(Dss1B) (UniProt P31948); the T-Mods.
Assay in all cases: ITC
A general note: Isothermal titration calorimetry measures the heat released or taken up as one component is titrated into another.

By Kd is commonly meant a measure of binding affinity in units of concentration. As a reminder, the stoichiometry N is a count of units in the complex or per binding partner. With “Dss1-C19 peptide (from UniProt P60896 52-70)”, in the assay with T-Mod(Dss1A), the Kd is 20.2 µM and the stoichiometry N worked out at 0.8. In the assay with T-Mod(Dss1B), this molecule gave a Kd of 18.6 µM and a stoichiometry N of 1.1.

For “Dss1-C19 peptide mutant R57A (from UniProt P60896 52-70)”, the results for the Kd with T-Mod(Dss1A) and with T-Mod(Dss1B) were 157 µM and 665 µM, respectively. The molecule also returned a stoichiometry N in the assay with T-Mod(Dss1A) of 0.8.

B1: Sem1 (natural protein)
chain: MSTDVAAAQAQSKIDLTKKKNEEINKKSLEEDDEFEDFPIDTWANGETIKSNAVTQTNIWEENWDDVEVDDDFTNELKAELDRYKRENQ
In turn, B1 returned a dissociation constant (Kd) with the T-Mods of 175 µM.
